# Laboratory results published in patent US20230079150A1, “METHODS FOR PREVENTION OR TREATMENT OF VIRUS-INDUCED ORGAN INJURY OR FAILURE WITH IL-22 DIMER” (priority 2020, published 2023).
# What was measured:
# C57BL/6 mice = test: LPS acute lung injury mouse model: BAL inflammatory mediators (Milliplex cytokine panel); format: in vivo; details: day 4
# Experimental: After approval from the Tulane University, Institutional Animal Care and Use Committee (protocol ID 607), equal numbers of male and female, 6-8 week old C57BL/6 mice (Charles River Laboratories, Cambridge, Mass.) were given acute lung injury (ALI) via intra-tracheally administered LPS. After obtaining appropriate depth of anesthesia using isoflurane, the high-dose LPS group (HDG) received 100 μg of LPS administered intra-tracheally. Approximately 30 minutes after LPS administration, 4 μg of F-652 was administered via tail vein injection (n=11), then compared to animals receiving sham injection (n=8) with phosphate-buffered saline (PBS). In the low-dose LPS group (LDG), 33.3 μg of LPS was administered intra-tracheally. F-652 was again administered at 30 minutes (n=9) and compared to sham injected animals (n=9). The Interleukin-22:Fc (F-652) protein is a recombinant fusion protein (F-652) (Evive Biotech, Shanghai, China) with two human IL-22 molecules linked to the Fc portion of human immunoglobulin G2, which extends the half-life of the molecule.
# Euthanasia and bronchoalveolar lavage (BAL) was carried out on post-injury day 4. After obtaining appropriate levels of anesthesia with inhaled isoflurane, the trachea was cannulated using a 26 gauge needle and BAL was performed with three successive washes using 1 mL of PBS. Next, a small segment of the left lower lobe was removed and saved for RNA isolation. Finally, 1 cc of 4% paraformaldehyde was injected to the lung for fixation.
# The BAL fluid was then centrifuged at 500×gravity for 5 minutes. Cells were obtained from the BAL after centrifuge and cell counts performed. Cells were then affixed to glass slides and stained with Wright's stain. To quantify protein in the BAL supernatant, a Bradford protein assay (Bio-Rad Laboratories) was performed. Protein was quantified by measuring absorbance at 595 nm on a BMG Labtech FLUOstar Optima plate reader. In addition, the BAL supernatant was used to measure pro-inflammatory cytokines using a Milliplex Mouse Cytokine/Chemokine Magnetic Bead Panel (Millipore Sigma). The 32 cytokines measured included Eotaxin, Granulocyte Colony-Stimulating Factor (G-CSF), Granulocyte-Monocyte Colony-Stimulating Factor (GM-CSF), Interferon-γ (IFN-γ), Interleukin-1α (IL-1α), IL-1, IL-2, IL-3, IL-4, IL-5, IL-6, IL-7, IL-9, IL-10, IL-12 (p40 segment), IL-12 (p70 segment), IL-13, IL-15, IL-17, Interferon-γ induced protein 10 (IP-10), keratinocyte chemoattractant (KC), leukemia inhibitory factor (LIF), lipopolysaccharide-induced CXC chemokine (LIX), monocyte chemoattractant protein-1 (MCP-1), macrophage colony-stimulating factor (M-CSF), monokine induced by gamma-interferon (MIG), MIP-1α, macrophage inflammatory protein-1β/CCL4 (MIP-1β), MIP-2, regulated upon activation, normal T-cell expressed and presumably secreted (RANTES), tumor necrosis factor-α (TNF-α), vascular endothelial growth factor (VEGF). Human IL-22 was measured using an IL-22 Human ELISA kit (ThermoFisher Scientific). Mouse IL-22 was measured using an IL-22 Mouse/Rat Quantikine ELISA kit (R&D Systems).
# [1] = system: H1N1 influenza (A/PR8 strain); format: in vivo, C57BL/6 mice; details: both aged and young H1N1-infected mice
# [2] = system: H1N1 influenza (A/PR8 strain); format: in vivo, C57BL/6 mice; details: aged mice; data not shown
molecule,measurement,setting,value
"F-652: recombinant IL-22 dimer consisting of two monomeric subunits each comprising a sequence shown in SEQ ID NO: 24 (protein, homodimer) chain 1: APISSHCRLDKSNFQQPYITNRTFMLAKEASLADNNTDVRLIGEKLFHGVSMSERCYLMKQVLNFTLEEVLFPQSDRFQPYMQEVVPFLARLSNRLSTCHIEGDDLHIQRNVQKLKDTVKKLGESGEIKAIGELDLLFMSLRNACIGSGGGSGGGGSGGGGSVECPPCPAPPVAGPSVFLFPPKPKDTLMISRTPEVTCVVVDVSHEDPEVQFNWYVDGVEVHNAKTKPREEQFNSTFRVVSVLTVVHQDWLNGKEYKCKVSNKGLPASIEKTISKTKGQPREPQVYTLPPSREEMTKNQVSLTCLVKGFYPSDIAVEWESNGQPENNYKTTPPMLDSDGSFFLYSKLTVDKSRWQQGNVFSCSVMHEALHNHYTQKSLSLSPGK chain 2: APISSHCRLDKSNFQQPYITNRTFMLAKEASLADNNTDVRLIGEKLFHGVSMSERCYLMKQVLNFTLEEVLFPQSDRFQPYMQEVVPFLARLSNRLSTCHIEGDDLHIQRNVQKLKDTVKKLGESGEIKAIGELDLLFMSLRNACIGSGGGSGGGGSGGGGSVECPPCPAPPVAGPSVFLFPPKPKDTLMISRTPEVTCVVVDVSHEDPEVQFNWYVDGVEVHNAKTKPREEQFNSTFRVVSVLTVVHQDWLNGKEYKCKVSNKGLPASIEKTISKTKGQPREPQVYTLPPSREEMTKNQVSLTCLVKGFYPSDIAVEWESNGQPENNYKTTPPMLDSDGSFFLYSKLTVDKSRWQQGNVFSCSVMHEALHNHYTQKSLSLSPGK",C-X-C Motif Chemokine 5 (LIX) in BAL,"C57BL/6 mice; high dose LPS, F-652 4 μg i.v.",0.00 ± 0.00 pg/mL
same,Eotaxin in BAL,"C57BL/6 mice; high dose LPS, F-652 4 μg i.v.",4.63 ± 2.43 pg/mL
same,Granulocyte-Macrophage Colony-Stimulating Factor in BAL,"C57BL/6 mice; high dose LPS, F-652 4 μg i.v.",0.00 ± 0.00 pg/mL
same,Interferon-γ in BAL,"C57BL/6 mice; high dose LPS, F-652 4 μg i.v.",8.08 ± 2.18 pg/mL
same,Interferon-γ-Induced Protein-10 in BAL,"C57BL/6 mice; high dose LPS, F-652 4 μg i.v.",118.40 ± 43.72 pg/mL
same,Interleukin-1α in BAL,"C57BL/6 mice; high dose LPS, F-652 4 μg i.v.",69.39 ± 5.91 pg/mL
same,Interleukin-1β in BAL,"C57BL/6 mice; high dose LPS, F-652 4 μg i.v.",3.48 ± 1.25 pg/mL
same,Interleukin-2 in BAL,"C57BL/6 mice; high dose LPS, F-652 4 μg i.v.",7.33 ± 0.83 pg/mL
same,Interleukin-3 in BAL,"C57BL/6 mice; high dose LPS, F-652 4 μg i.v.",1.07 ± 0.02 pg/mL
same,Interleukin-4 in BAL,"C57BL/6 mice; high dose LPS, F-652 4 μg i.v.",1.09 ± 0.09 pg/mL
same,Interleukin-5 in BAL,"C57BL/6 mice; high dose LPS, F-652 4 μg i.v.",7.86 ± 1.14 pg/mL
same,Interleukin-7 in BAL,"C57BL/6 mice; high dose LPS, F-652 4 μg i.v.",1.75 ± 0.18 pg/mL
same,Interleukin-9 in BAL,"C57BL/6 mice; high dose LPS, F-652 4 μg i.v.",311.8 ± 38.17 pg/mL
same,Interleukin-12 (p40) in BAL,"C57BL/6 mice; high dose LPS, F-652 4 μg i.v.",7.13 ± 1.89 pg/mL
same,Interleukin-12 (p70) in BAL,"C57BL/6 mice; high dose LPS, F-652 4 μg i.v.",1.95 ± 1.00 pg/mL
same,Interleukin-13 in BAL,"C57BL/6 mice; high dose LPS, F-652 4 μg i.v.",10.56 ± 1.49 pg/mL
same,Interleukin-15 in BAL,"C57BL/6 mice; high dose LPS, F-652 4 μg i.v.",6.10 ± 1.02 pg/mL
same,Interleukin-17 in BAL,"C57BL/6 mice; high dose LPS, F-652 4 μg i.v.",2.28 ± 0.56 pg/mL
same,Keratinocyte Chemoattractant/Growth Regulated Oncogene in BAL,"C57BL/6 mice; high dose LPS, F-652 4 μg i.v.",19.54 ± 3.08 pg/mL
same,Macrophage Colony-Stimulating Factor in BAL,"C57BL/6 mice; high dose LPS, F-652 4 μg i.v.",2.89 ± 1.02 pg/mL
same,Macrophage Inflammatory Protein-1α in BAL,"C57BL/6 mice; high dose LPS, F-652 4 μg i.v.",45.99 ± 7.56 pg/mL
same,Macrophage Inflammatory Protein-1β in BAL,"C57BL/6 mice; high dose LPS, F-652 4 μg i.v.",19.42 ± 7.63 pg/mL
same,Macrophage Inflammatory Protein-2 in BAL,"C57BL/6 mice; high dose LPS, F-652 4 μg i.v.",28.63 ± 5.43 pg/mL
same,Monocyte Chemoattractant Protein in BAL,"C57BL/6 mice; high dose LPS, F-652 4 μg i.v.",14.66 ± 7.16 pg/mL
same,Monocyte Induced by Interferon-γ in BAL,"C57BL/6 mice; high dose LPS, F-652 4 μg i.v.",100.60 ± 35.47 pg/mL
same,Vascular Endothelial Growth Factor in BAL,"C57BL/6 mice; high dose LPS, F-652 4 μg i.v.",12.18 ± 3.03 pg/mL
same,Interleukin-10 level in BAL fluid,"C57BL/6 mice; high-dose LPS, F-652 4 μg tail vein, sham 4.05",22.10 pg/mL
same,TNF-α level in BAL fluid,"C57BL/6 mice; high-dose LPS, F-652 4 μg tail vein, sham 25.41",5.87 pg/mL
same,IL-6 level in BAL fluid,"C57BL/6 mice; high-dose LPS, F-652 4 μg tail vein, sham 527.1",110.6 pg/mL
same,G-CSF level in BAL fluid,"C57BL/6 mice; high-dose LPS, F-652 4 μg tail vein, sham 659.6",95.14
same,C-X-C Motif Chemokine 5 (LIX) in BAL,"C57BL/6 mice; low dose LPS, F-652 4 μg i.v.",9.27 ± 6.04 pg/mL
same,Eotaxin in BAL,"C57BL/6 mice; low dose LPS, F-652 4 μg i.v.",2.59 ± 1.93 pg/mL
same,Granulocyte Colony-Stimulating Factor in BAL,"C57BL/6 mice; low dose LPS, F-652 4 μg i.v.",23.49 ± 9.15 pg/mL
same,Granulocyte-Macrophage Colony-Stimulating Factor in BAL,"C57BL/6 mice; low dose LPS, F-652 4 μg i.v.",0.00 ± 0.00 pg/mL
same,Interferon-γ in BAL,"C57BL/6 mice; low dose LPS, F-652 4 μg i.v.",1.15 ± 0.42 pg/mL
same,Interferon-γ-Induced Protein-10 in BAL,"C57BL/6 mice; low dose LPS, F-652 4 μg i.v.",12.94 ± 3.54 pg/mL
same,Interleukin-1α in BAL,"C57BL/6 mice; low dose LPS, F-652 4 μg i.v.",61.31 ± 12.36 pg/mL
same,Interleukin-1β in BAL,"C57BL/6 mice; low dose LPS, F-652 4 μg i.v.",0.01 ± 0.01 pg/mL
same,Interleukin-2 in BAL,"C57BL/6 mice; low dose LPS, F-652 4 μg i.v.",6.77 ± 1.75 pg/mL
same,Interleukin-3 in BAL,"C57BL/6 mice; low dose LPS, F-652 4 μg i.v.",0.00 ± 0.00 pg/mL
same,Interleukin-4 in BAL,"C57BL/6 mice; low dose LPS, F-652 4 μg i.v.",0.00 ± 0.00 pg/mL
same,Interleukin-5 in BAL,"C57BL/6 mice; low dose LPS, F-652 4 μg i.v.",0.00 ± 0.00 pg/mL
same,Interleukin-6 in BAL,"C57BL/6 mice; low dose LPS, F-652 4 μg i.v.",0.95 ± 0.62 pg/mL
same,Interleukin-7 in BAL,"C57BL/6 mice; low dose LPS, F-652 4 μg i.v.",0.00 ± 0.00 pg/mL
same,Interleukin-9 in BAL,"C57BL/6 mice; low dose LPS, F-652 4 μg i.v.",154.50 ± 37.46 pg/mL
same,Interleukin-10 in BAL,"C57BL/6 mice; low dose LPS, F-652 4 μg i.v.",19.91 ± 6.56 pg/mL
same,Interleukin-12 (p40) in BAL,"C57BL/6 mice; low dose LPS, F-652 4 μg i.v.",6.87 ± 1.88 pg/mL
same,Interleukin-12 (p70) in BAL,"C57BL/6 mice; low dose LPS, F-652 4 μg i.v.",0.00 ± 0.00 pg/mL
same,Interleukin-13 in BAL,"C57BL/6 mice; low dose LPS, F-652 4 μg i.v.",2.69 ± 0.93 pg/mL
same,Interleukin-15 in BAL,"C57BL/6 mice; low dose LPS, F-652 4 μg i.v.",0.00 ± 0.00 pg/mL
same,Interleukin-17 in BAL,"C57BL/6 mice; low dose LPS, F-652 4 μg i.v.",0.40 ± 0.06 pg/mL
same,Keratinocyte Chemoattractant/Growth Regulated Oncogene in BAL,"C57BL/6 mice; low dose LPS, F-652 4 μg i.v.",9.11 ± 2.76 pg/mL
same,Macrophage Colony-Stimulating Factor in BAL,"C57BL/6 mice; low dose LPS, F-652 4 μg i.v.",0.00 ± 0.00 pg/mL
same,Macrophage Inflammatory Protein-1α in BAL,"C57BL/6 mice; low dose LPS, F-652 4 μg i.v.",15.62 ± 2.03 pg/mL
same,Macrophage Inflammatory Protein-1β in BAL,"C57BL/6 mice; low dose LPS, F-652 4 μg i.v.",0.00 ± 0.00 pg/mL
same,Macrophage Inflammatory Protein-2 in BAL,"C57BL/6 mice; low dose LPS, F-652 4 μg i.v.",20.45 ± 10.88 pg/mL
same,Monocyte Chemoattractant Protein in BAL,"C57BL/6 mice; low dose LPS, F-652 4 μg i.v.",0.00 ± 0.00 pg/mL
same,Monocyte Induced by Interferon-γ in BAL,"C57BL/6 mice; low dose LPS, F-652 4 μg i.v.",10.52 ± 4.73 pg/mL
same,Tumor Necrosis Factor-α in BAL,"C57BL/6 mice; low dose LPS, F-652 4 μg i.v.",3.01 ± 1.79 pg/mL
same,Vascular Endothelial Growth Factor in BAL,"C57BL/6 mice; low dose LPS, F-652 4 μg i.v.",3.01 ± 0.50 pg/mL
same,hydroxyproline content of right lung lobes compared to PBS control,[1],significantly reduced
same,CD8+ cells and KRT5+ cells in lungs compared to PBS control,[2],clear trend of decrease
